Measurements published in patent US20210138083A1 (INATHERYS, published 2021).

B1: INA01-SDV1 (antibody, human IgG4 S228P, kappa, V domains shown)
VH: QVQLVQSGPELKKPGASVKVSCKASGYTFTNQGMNWVKQAPGKGLKWMGWINTYTGEPINADDFKGRFVISLDTSASTAYLQISSLKAEDTAVYFCVREGWDSMDYWGQGTSVTVSS
VL: QIVLTQSPATLSVSPGERATLSCSASSSVNYMHWFQQKPGQSPRLLIYSTSNRATGIPARFSGSGSGTSYTLTISSLEPEDFAVYYCQQRSSYPLTFGQGTKLEIKR
modifications: linker APN (formula IV)-valine-citrulline-para-aminobenzyl ester-MMAE attached through the cysteine residues (thiols); biotinylated in Example 1
B2: A24 (antibody, V domains shown)
VH: QIQLVQSGPELKKPGETVKISCKASGYTFTNQGMNWVKQAPGKGLKWMGWINTYTGEPINADDFKGRFAISLETSASTAYLQINNLKNEDMATYFCVREGWDSMDYWGQGTSVTVSS
VL: QIVLTQSPAIMSASPGEKVTITCSASSSVNYMHWFQQKPGTSPKLWIYSTSNLASGVPARFSGSGSGTSYSLTISRMEAEDAATYYCQQRSSYPLTFGAGTKLELKR
modifications: biotinylated in Example 1
notes: Mouse monoclonal IgG (IgG2kappa) as disclosed in WO 2005/111082; also called antibody A24; murine A24 antibody

Columns and labels:
[1] = biological target: T1, human transferrin receptor (Transferrin receptor protein 1 isoform 1, Homo sapiens, NCBI NP_003225.2) (Homo sapiens, UniProt P02786 1-760); assay: cell-based or functional assay
T1 sequence (P02786 whole entry, canonical isoform): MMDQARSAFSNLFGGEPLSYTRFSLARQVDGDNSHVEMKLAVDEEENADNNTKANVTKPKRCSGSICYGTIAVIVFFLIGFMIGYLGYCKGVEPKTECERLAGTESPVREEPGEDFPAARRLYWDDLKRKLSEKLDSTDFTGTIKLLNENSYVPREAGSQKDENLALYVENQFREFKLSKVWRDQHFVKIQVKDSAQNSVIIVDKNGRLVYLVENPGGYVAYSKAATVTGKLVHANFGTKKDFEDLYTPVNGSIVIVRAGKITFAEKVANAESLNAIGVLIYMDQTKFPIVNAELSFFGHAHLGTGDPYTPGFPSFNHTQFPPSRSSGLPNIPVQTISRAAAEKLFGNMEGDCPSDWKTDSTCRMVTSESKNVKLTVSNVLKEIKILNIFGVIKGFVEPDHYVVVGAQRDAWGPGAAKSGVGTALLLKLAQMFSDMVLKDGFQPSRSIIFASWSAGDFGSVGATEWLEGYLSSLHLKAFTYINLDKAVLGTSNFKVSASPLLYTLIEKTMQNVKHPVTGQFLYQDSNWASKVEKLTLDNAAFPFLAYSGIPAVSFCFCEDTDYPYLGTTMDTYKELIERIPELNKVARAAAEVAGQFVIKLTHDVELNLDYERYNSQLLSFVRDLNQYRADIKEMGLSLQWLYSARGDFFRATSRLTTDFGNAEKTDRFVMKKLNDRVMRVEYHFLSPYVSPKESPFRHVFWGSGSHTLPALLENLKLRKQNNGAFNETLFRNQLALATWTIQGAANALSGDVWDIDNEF

[2] = biological target: T1, human transferrin receptor (Transferrin …); assay: flow cytometry, biotinylated antibody on THP-1 and MEC-1 cells, streptavidin Alexa F488
Protocol: Serial dilutions (5 to 0.05 ug/mL) of both biotinylated antibodies (antibody A24 and antibody of ADC INA01-SDV1) were performed and incubated on THP-1 and MEC-1 cell lines. The binding of the diluted antibodies was detected by Flow cytometry using streptavidin Alexa F488 (available at ThermoFisher scientific).

Binder	IC50 of cell proliferation of HL-60 acute myeloid leukemia cell line [1]	binding result [2]
B1	0.08 µg/mL	–
B2	–	binds
